Assays:
[1] = target: digested β-vignin (β-vignin incubated 30 h with the 6 d.a.i. germinating cowpea seed extract): 27 kDa core with the proteolytic products that stay with it (Vigna unguiculata (cowpea)); assay: SEC; Superdex 75 10/300 GL, 25 mM phosphate buffer pH 7.0, 150 mM NaCl; β-vignin digested 30 h with the 6 d.a.i. extract, 50 μg loaded; eluted fractions on SDS-PAGE (silver stained); digest not purified from the extract
[2] = target: native β-vignin, the vicilin (7S globulin) storage protein of cowpea (Vigna unguiculata) seeds (Vigna unguiculata (cowpea)); assay: SEC; Superdex 200 10/300 GL, 25 mM Tris-HCl pH 9.0, 150 mM or 300 mM NaCl; 50 μg β-vignin (0.5 mg/mL) loaded
[3] = target: native β-vignin, the vicilin (7S globulin) storage protein of cowpea (Vigna unguiculata) seeds (Vigna unguiculata (cowpea)); assay: SEC; Superdex 75 10/300 GL, 25 mM phosphate buffer pH 7.0, 150 mM NaCl, 0.5 mL/min; peak areas by Multiple Peak Fit; monomer to trimer

“digested β-vignin (β-vignin incubated 30 h with the 6 d.a.i. germinating cowpea seed extract): 27 kDa core with the proteolytic products that stay with it (complex)” was tested, and the percent monomer [1] was 90.2% and the percent trimer [1] was 9.8%.

With “native β-vignin, the vicilin (7S globulin) storage protein of cowpea (Vigna unguiculata) seeds (natural protein)” the stoichiometry N [2] was 3, the percent monomer [3] was 80% and the percent trimer [3] was 20%.

— article PMC8746429
